Measured values as given in publication PMC4923858.

Target: T1, TβRII-GFP, P37173
T1 chain: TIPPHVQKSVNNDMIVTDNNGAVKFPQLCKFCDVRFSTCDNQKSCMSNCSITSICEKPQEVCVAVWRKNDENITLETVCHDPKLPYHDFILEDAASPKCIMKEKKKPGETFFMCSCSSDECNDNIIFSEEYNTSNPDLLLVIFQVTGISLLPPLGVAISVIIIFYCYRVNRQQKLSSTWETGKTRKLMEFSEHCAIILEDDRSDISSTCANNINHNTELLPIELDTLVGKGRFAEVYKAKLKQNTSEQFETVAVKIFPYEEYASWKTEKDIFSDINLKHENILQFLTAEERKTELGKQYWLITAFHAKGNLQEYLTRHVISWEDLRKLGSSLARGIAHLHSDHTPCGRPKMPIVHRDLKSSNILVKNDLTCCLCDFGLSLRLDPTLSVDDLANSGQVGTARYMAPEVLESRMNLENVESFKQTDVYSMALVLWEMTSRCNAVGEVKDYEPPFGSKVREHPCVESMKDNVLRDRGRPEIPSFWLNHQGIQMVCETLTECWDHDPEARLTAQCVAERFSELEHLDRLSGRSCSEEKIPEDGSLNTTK
Assay: single-molecule photobleaching step counting (TIRFM); TβRII-GFP on the membrane of fixed HeLa cells 4 h after transfection; after TGF-β1 10 ng/mL for 15 min at 37 °C; room temperature
Settings: remark: other sources report otherwise

percent of spots bleaching in one step (monomers), after TGF-β1: 67.7%
percent of spots bleaching in three steps, after TGF-β1: 0.6%
percent of spots bleaching in two steps (dimers), after TGF-β1: 31.6%
B1: TβRII-GFP, P37173 23-567 (receptor)
chain: TIPPHVQKSVNNDMIVTDNNGAVKFPQLCKFCDVRFSTCDNQKSCMSNCSITSICEKPQEVCVAVWRKNDENITLETVCHDPKLPYHDFILEDAASPKCIMKEKKKPGETFFMCSCSSDECNDNIIFSEEYNTSNPDLLLVIFQVTGISLLPPLGVAISVIIIFYCYRVNRQQKLSSTWETGKTRKLMEFSEHCAIILEDDRSDISSTCANNINHNTELLPIELDTLVGKGRFAEVYKAKLKQNTSEQFETVAVKIFPYEEYASWKTEKDIFSDINLKHENILQFLTAEERKTELGKQYWLITAFHAKGNLQEYLTRHVISWEDLRKLGSSLARGIAHLHSDHTPCGRPKMPIVHRDLKSSNILVKNDLTCCLCDFGLSLRLDPTLSVDDLANSGQVGTARYMAPEVLESRMNLENVESFKQTDVYSMALVLWEMTSRCNAVGEVKDYEPPFGSKVREHPCVESMKDNVLRDRGRPEIPSFWLNHQGIQMVCETLTECWDHDPEARLTAQCVAERFSELEHLDRLSGRSCSEEKIPEDGSLNTTK
